Reference: paper PMC4939959

Biological target: Prototype foamy virus (PFV) Env glycoprotein, wild type, fully processed (gp18^LP, gp80^SU, gp48^TM), trimeric spike in the viral membrane (Prototype foamy virus (PFV)) (UniProt P14351)
Assay: cryo-electron tomography with subtomogram averaging; Env in situ in the membrane of purified virus particles (wt fixed with 4% paraformaldehyde, iNAB, iFuse), plunge-frozen; single spike, 3-fold symmetry seen in the asymmetric average and then enforced; 3.2, 2.9 and 2.8 nm at FSC = 0.5; step: Env protomers in the trimeric spike

Substance: Prototype foamy virus (PFV) Env glycoprotein, wild type, fully processed (gp18^LP, gp80^SU, gp48^TM), trimeric spike in the viral membrane (from UniProt P14351 1-126; P14351 1-126; P14351 1-126) (complex)
- stoichiometry N: 3
